Experiment [1] concerns the target T1, recombinant human CD22 (labeled CD22 used in flow cytometry of yeast) (human, UniProt P20273 20-687, limits assumed, fluorescent label, not specified).
T1 construct: also called fluorescently tagged antigen
Kind of experiment: flow cytometry of yeast-displayed scFv with decreasing amounts of labeled CD22. The method, then:
After electroporation, the resulting mutant library was then grown overnight at 30° C. for 16 hours in SDCAA medium and then switched into SGCAA medium at 30° C. for another 16 hours. The mutant library was then sorted through MACS (immunomagentic column, Miltenyi Biotec) with CD22-Fc as the capture antigen to downsize the library and to increase the population of mutants that could bind to CD22-Fc. The strongest binders were then selected by double staining the pools with Anti-c-Myc-Alexa 488 and […]/Anti-Hu-Fc and selecting for the binders that had the highest binding affinities as well as c-Myc expression levels. […] Binding affinities were estimated by flow cytometry of yeast pools using decreasing amounts of labeled CD22.
In general terms: A flow cytometer gives signals particle by particle.

For experiment [2], the target named is T2, CD22 expressed on cells (CHOK1-CD22, K562-CD22, Raji, Reh) (human, UniProt P20273 20-847).
T2 construct: whole, on cells; also called SIGLEC-2; Leu14
Kind of experiment: yeast display cell panning on CHOK1 cells transfected with CD22. How it is done:
The same ScFv starting material as for phage display was also incorporated into a yeast ScFv display system. To supplement phage-based scFv analysis, yeast libraries expressing the human scFv library were also screened. To enrich the yeast expressing scFvs that bind to both the recombinant CD22-Fc and the […] expressed on the cell surface of the CHOK1 cells, cell panning on CHOK1 transfected with CD22 cells was performed. For the first round of panning on the cell surface, two days prior to panning, the CHOK1-CD22 cells were seeded into 6-well plates and grown to 50% confluency in F12 K medium. 5×10⁷ yeast cells were then washed 2× with PBSA buffer and resuspended into 3 mL F12 K medium, and then gently added dropwise to the CHOK1-CD22 cells. […] The cell mix containing both the yeast and CHOK1 cells were then inoculated into 10 mL SDCAA medium and amplified overnight at 30° C. and then induced in SGCAA medium at 30° C. for 16 hours. For the second round of cell panning, a similar protocol as above was performed, but more stringent wash conditions were used. […] Binder sequences were incorporated into CART constructs as described in Example 2, infra, in a series of in vitro CART functional assays.

Some results are limits rather than exact numbers.

B1: CD22-specific binder (scFv18) 16P15 (scFv)
scFv: QVQLQQSGPGLVKPSQTLSLTCAISGDSVSSNSAAWNWIRQSPSRGLEWLGRTYYRSKWYNDYAVSVKSRITINPDTSKNQFSLQLNSVTPEDTAVYYCAQEVEPHDALDIWGQGTMVTVSSGGGGSGGGGSGGGGSDIQMTQSPSSVSASVGDKVTITCRASQDVSGWLAWYQQKPGLAPQLLIFGASTLQGEVPSRFSGSGSGTDFTLTISSLQPEDFATYYCQQAKYFPYTFGQGTKLEIK
Usually EC50 stands for the concentration that produces a half-maximal response. Turning to B1, in experiment [1], the EC50 was less than 0.01 µg/mL.

B2: CD22-specific binder (scFv8) 16P20 (scFv)
scFv: QVQLQQSGPGLVKPSQTLSLTCAISGDSVSSNSAAWNWIRQSPSRGLEWLGRTYYRSKWYNDYAVSVKSRITINPDTSKNQFSLQLNSVTPEDTAVYYCAQEVEPHDALDIWGQGTMVTVSSGGGGSGGGGSGGGGSDIQMTQSPSSVSASVGDKVTITCRASQDVSGWLAWYQQKPGLAPQLLIFGASTLQGEVPSRFSGSGSGTDFTLTISSLQPEDFATYYCQQAKYFPYTFGQGTKLEIK
For B2, the EC50 in experiment [1] was less than 0.01 µg/mL.

B3: CD22-specific binder (scFv12) 16P17 (scFv)
scFv: QVQLQQSGPGLVKHSQTLSLTCAISGDSVSSNSAAWNWIRQSPSRGLEWLGRTYYRSKWYNDYAVSVKSRITINPDTSKNQFSLQLNSVTPEDTAVYYCAQEVEPHDAFDIWGQGTMVTVSSGGGGSGGGGSGGGGSDIQMTQSPSSVYASVGDKVTITCRASQDVSGWLAWYQQKPGLAPQLLISGASTLQGEVPSRFSGSGSGTDFTLTISSLQPEDFATYYCQQAKYFPYTFGQGTKLEIK
Turning to B3, in experiment [1], the EC50 is less than 0.01 µg/mL.

B4: CD22-specific binder (scFv9) 16P2 (scFv)
scFv: QVQLQQSGPGLVKPSQTLSLTCAISGDSVSSNSAAWNWIRQSPSRGLEWLGRTYYRSKWYNDYAVSVKSRITINPDTFKNQFSLQLNSVTPEDTAVYYCAQEVEPHDALDIWGQGTMVTVSSGGGGSGGGGSGGGGSDIKMTQSPSSVSASVGDKVTITCRASQDVSGWLAWYQQKPGLAPQLLIFGASTLQGEVPSRFSGSGSGTDFTLTISSLQPEDFATYYCQQAKYFPYTFGQGTKLEIK
For B4, the EC50 in experiment [1] is less than 0.01 µg/mL.

B5: CD22-specific binder (scFv6) 16P3 (scFv)
scFv: QIQLQQSGPGLVKPSQTLSLTCAISGDSVSSNSAAWNWIRQSPSRGLEWLGRTYYRSKWYNDYAVSVKSRITINPDTSKNQFSLQLNSVTPEDTAVYYCAQEVQPDDALDIWGQGTMVTVSSGGGGSGGGGSGGGGSDIQMTQSPSSVSASVGDKVTITCRASQDVSGWLAWYQQKPGLAPQLLISGASTLQGEVPSRFSGSGSGTDFTLTISSLQPEDFATYYCQQAKNFPYTFGQGTKLEIK
Consider B5, for which the EC50 in experiment [1] is less than 0.01 µg/mL.

B6: CD22-specific binder (scFv11) 16P10 (scFv)
scFv: QVQLQQSGPGLVKPSQTLSLTCAISGDSVSSNSAAWNWIRQSPSRGLEWLGRTYYRSKWYNDYAVSVKSRITINPDTSKNQFSLQLNSVTPEDTAVYYCAQEVEPQDAFDIWGQGTMVTVSSGGGGSGGGGSGGGGSDIQMTQSPSSVSASVGDKVTITCRASQDVSGWLAWYQQKPGLAPQLLIFGASTLQGEVPSRFSGSGSGTDFTLTISSLQPEDFATYYCQQAKYFPYTFGPGTKLEIK
Take B6: the EC50 in experiment [1] was less than 0.01 µg/mL.

B7: CD22-specific binder (scFv16) 16P8 (scFv)
scFv: QVQLQQSGPGLVKPSQTLSLTCAISGDSVSSNSAAWNWIRQSPSRGLEWLGRTYYRSKWYTDYAVSVKNRITINPDTSKNQFSLQLNSVTPEDTAVYYCAQEVEPQDAFDIWGQGTMVTVSSGGGGSGGGGSGGGGSDIQMTQSPSSVSASVGDKVTITCRASQDVSGWLAWYQQKPGLAPQLLIFGASTLQGEVPSRFSGSGSGTDFTLTISSLQPEDFATYYCQQAKYFPYTFGRGTKLEIK
B7: the EC50 in experiment [1] is less than 0.01 µg/mL.

B8: CD22-specific binder (scFv13) 16P20v2 (scFv)
scFv: QVQLQQSGPGLVKPSQTLSLTCAISGDSVSSNSAAWNWIRQSPSRGLEWLGRTYYRSKWYNDYAVSVKSRITINPDTSKNQFSLQLNSVTPEDTAVYYCAQEVQPDDAFDIWGQGTMVTVSSGGGGSGGGGSGGGGSDIQMTQSPSSVSASVGDKVTITCRASQDVSGWLAWYQQKPGLAPQLLISGASTLQGEVPSRFSGSGSGTDFTLTISSLQPEDFATYYCQQAKNFPYTFGQGTKLEIK
Consider B8, for which, in experiment [1], the EC50 is less than 0.01 µg/mL.

B9: CD22-specific binder (scFv10) 16P6 (scFv)
scFv: QVQLQQSGPGLVKPSQTLSLTCAISGDSVSSNSAAWNWIRQSPSRGLEWLGRTYYRSKWYNDYAVSVKSRITINPDTSKNQFSLQLNSVTPEDTAVYYCAQEVQPDDAFDIWGQGTMITVSSGGGGSGGGGSGGGGSDIQMTQSPSSVSASVGDKVTITCRASQDVSGWLAWYQQKPGLAPQLLISGASTLQGGVPSRFSGSGSGTDFTLTISSLQPEDFATYYCQQAKNFPYTFGQGTKLEIK
On to B9, for which, in experiment [1], the EC50 was less than 0.01 µg/mL.

B10: CD22-specific binder (scFv14) 16P1 (scFv)
scFv: QVQLQQSGPGLVKPSQTLSLTCDISGDSVSSNSAAWNWIRQSPSRGLEWLGRTYYRSKWYNDYAVSVKSRITINPDTSKNQFSLQLNSVTPEDTAVYYCAQEIEPHDAFDIWDQGTMVTVSSGGGGSGGGGSGGGGSVIQMTQSPSSVSASVGDKVTITCRASQDVSGWLAWYQQKPGLAPQLLISGASSLQGGVPSRFSGSGSGTDFTLTISSLQPEDFATYYCQQAKYFPYTFGQGTKLEIK
Regarding B10, in experiment [1], the EC50 was less than 0.01 µg/mL.

B11: CD22-specific binder (scFv15) 16P3v2 (scFv)
scFv: QVQLQQSGPGLVKHSQTLSLACAISGDSVSSNSAAWNWIRQSPSRGLEWLGRTYYRSKWYNDYAVSVKSRITINPDTSKNQFSLQLNSVTPEDTAVYYCAQEVQPQDALDIWGQGTMVTVSSGGGGSGGGGSGGGGSDIQMTQSPSFVSASVGDKVIITCRASQDVSGWLAWYQQKPGLAPQLLISGASTLQGEVPSRFSGSGSGTDFTLTISSLQPEDFATYYCQQAKYFPYTFGQGTKLEIK
On to B11, for which the EC50 in experiment [1] was less than 0.01 µg/mL.

B12: CD22-specific binder (scFv17) 16P13 (scFv)
scFv: QVQLQQSGPGLVKPSQTLSLTCAISGNSVSSNSAAWNWIRQSPSRGLEWLGRTYYRSKWYNDYAVSVKSRITINPDTSKNQFSLQLNSVTPEDTAVYYCAQEVEPQDAFDIWGQGTMVTVSSGGGGSGGGGSGGGGSDIQMTQSPSSVSASVGDKVTITCRASQDVSGWLAWYQQKPGLAPQLLIFGASTLQGEVPSRFSGGGSGTDFTLTISSLQPEDFATYYCQQAKYFPYTFGQGTKLEIK
As to B12, the EC50 in experiment [1] is less than 0.01 µg/mL.

B13: CD22-specific binder (scFv7) 16P16 (scFv)
scFv: QVQLQQSGPGLVKPSQTLSLTCAISGDSVSSNSAAWNWIRQSPSRGLEWLGRTYYRSKWYNDYAVSVKSRITINPDTFKNQFSLQLNSVTPEDTAVYYCAQEVEPHDALDIWGQGTMVTVSSGGGGSGGGGSGGGGSDIKMTQSPSSVSASVGDKVTITCRASQDVSGWLAWYQQKPGLAPQLLIFGASTLQGEVPSRFSGSGSGTDFTLTISSLQPEDFATYYCQQAKYFPYTFGQGTKLEIK
For B13, in experiment [1], the EC50 was less than 0.01 µg/mL.

B14: CD22-specific binder (scFv1) 16P (scFv)
scFv: QVQLQQSGPGLVKPSQTLSLTCAISGDSVSSNSAAWNWIRQSPSRGLEWLGRTYYRSKWYNDYAVSVKSRITINPDTSKNQFSLQLNSVTPEDTAVYYCAQEVQPHDAFDIWGQGTMVTVSSGGGGSGGGGSGGGGSDIQMTQSPSSVSASVGDKVTITCRASQDVSGWLAWYQQKPGLAPQLLIFGASTLQGEVPSRFSGSGSGTDFTLTISSLQPEDFATYYCQQAKNFPYTFGQGTKLEIKR
notes: also called founder clone
With B14, the EC50 in experiment [1] amounted to 0.5 µg/mL.

B15: CD22-specific binder (scFv3) 25P (scFv)
scFv: QVQLQQSGPGLVKPSQTLSLTCAISGDSVSSNSAAWNWIRQSPSRGLEWLGRTYYRSKWYNDYAVSVKSRITINPDTSKNQFSLQLNSLTPEDTAVYYCAREHQNEAAFDIWGQGTMVTVSSGGGGSGGGGSGGGGSQSVLTQPPSASGTPGQRVTISCSGGGSNIGTNTASWYQQLPGTAPKLLIYRNTQRPSGIPDRFSGSKSGTSASLAISGLQSEDEADYYCAAWDDSLNGYVFGAGTQLTVLG
notes: Lambda light chain
On to B15, for which the binding result in experiment [2] is given as “binds”.

B16: CD22-specific binder (scFv5) 12s (scFv)
scFv: QVQLQQSGPGLVKPSQTLSLTCAISGDSVSSNSAAWNWIRQSPSRGLEWLGRTYYRSKWYNDYAVSVKSRITINPDTSKNQFSLQLNSVTPEDTAVYYCAREGDDALDIWGQGTMVTVSSGGGGSGGGGSGGGGSDIQMTQSPSSLSASVGDRVTITCRASQSISHFLNWYQQKPGTAPKLLITTASGLGSGVPSRFSGSGSGTDFTLTINSLQPEDLATYYCQQSYTTPLTFGGGTKLEIKR
With B16, the binding result in experiment [2] was “binds”.

(Values after US20200155661A1 (LENTIGEN TECHNOLOGY, published 2020).)
